Literature values as cited in publication PMC12608911.
Where two headings read alike, the source gives them in different places. Blank lines part the entries; values can stand above or below the substance they belong to.

Assays:
TREM-1 (Mus musculus) [1] = biological target: TREM-1 (Mus musculus) (UniProt Q9JKE2)
TREM-1 (Mus musculus) [2] = biological target: TREM-1 (Mus musculus) (UniProt Q9JKE2); remark: listed apart in the source
TREM-1 (Homo sapiens) [3] = biological target: TREM-1 (Homo sapiens) (UniProt Q9NP99)
Target sequence in this assay (Q9NP99 21-234): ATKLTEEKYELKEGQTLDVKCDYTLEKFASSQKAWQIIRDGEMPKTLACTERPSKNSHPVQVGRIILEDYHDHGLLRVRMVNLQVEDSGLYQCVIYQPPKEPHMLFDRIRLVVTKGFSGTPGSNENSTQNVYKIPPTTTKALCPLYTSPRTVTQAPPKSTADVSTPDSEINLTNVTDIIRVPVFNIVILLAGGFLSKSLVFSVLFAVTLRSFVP

TREM-1 (Homo sapiens) [4] = biological target: TREM-1 (Homo sapiens) (UniProt Q9NP99); remark: listed apart in the source
Target sequence in this assay (Q9NP99 21-205): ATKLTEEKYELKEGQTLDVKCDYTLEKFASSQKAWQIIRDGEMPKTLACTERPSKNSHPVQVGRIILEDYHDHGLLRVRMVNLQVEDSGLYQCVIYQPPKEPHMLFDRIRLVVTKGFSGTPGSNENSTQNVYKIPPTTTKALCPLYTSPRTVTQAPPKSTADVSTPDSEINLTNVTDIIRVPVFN

TREM-1 (Homo sapiens) [5] = biological target: TREM-1 (Homo sapiens) (UniProt Q9NP99); remark: listed apart in the source
Target sequence in this assay (Q9NP99 21-205): as above

TREM-1 (Homo sapiens) [6] = biological target: TREM-1 (Homo sapiens) (UniProt Q9NP99); remark: listed apart in the source
Target sequence in this assay (Q9NP99 21-205): as above

TREM-1 (Mus musculus) [7] = biological target: TREM-1 (Mus musculus) (UniProt Q9JKE2); remark: listed apart in the source

Sequence of TREM-1 (Mus musculus) (Q9JKE2 21-230): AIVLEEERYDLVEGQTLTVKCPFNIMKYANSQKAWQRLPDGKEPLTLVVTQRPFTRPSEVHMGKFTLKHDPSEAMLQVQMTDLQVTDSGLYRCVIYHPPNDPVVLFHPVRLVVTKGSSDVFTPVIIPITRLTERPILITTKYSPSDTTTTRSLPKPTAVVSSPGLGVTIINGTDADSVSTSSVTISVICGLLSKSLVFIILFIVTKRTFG
Sequence of PGLYRP1 peptide 17 (O75594 22-196): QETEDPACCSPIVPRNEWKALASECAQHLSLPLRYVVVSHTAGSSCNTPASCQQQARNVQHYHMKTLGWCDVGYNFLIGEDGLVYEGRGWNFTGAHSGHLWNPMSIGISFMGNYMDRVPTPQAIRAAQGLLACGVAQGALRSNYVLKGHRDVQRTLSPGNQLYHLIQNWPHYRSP
Sequence of PGLYRP1 peptide N15 (O75594 22-196): as above
Sequence of PGLYRP1 peptide N9 (O75594 22-196): as above
Sequence of HMGB1 (P63158 whole entry): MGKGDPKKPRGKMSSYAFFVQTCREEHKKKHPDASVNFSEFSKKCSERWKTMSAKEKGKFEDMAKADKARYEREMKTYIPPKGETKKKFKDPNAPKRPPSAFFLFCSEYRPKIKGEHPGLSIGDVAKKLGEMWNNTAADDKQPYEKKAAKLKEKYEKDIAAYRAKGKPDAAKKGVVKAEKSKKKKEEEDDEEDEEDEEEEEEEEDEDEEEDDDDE
Sequence of HSP70 N7 peptide (P0DMV8 2-641): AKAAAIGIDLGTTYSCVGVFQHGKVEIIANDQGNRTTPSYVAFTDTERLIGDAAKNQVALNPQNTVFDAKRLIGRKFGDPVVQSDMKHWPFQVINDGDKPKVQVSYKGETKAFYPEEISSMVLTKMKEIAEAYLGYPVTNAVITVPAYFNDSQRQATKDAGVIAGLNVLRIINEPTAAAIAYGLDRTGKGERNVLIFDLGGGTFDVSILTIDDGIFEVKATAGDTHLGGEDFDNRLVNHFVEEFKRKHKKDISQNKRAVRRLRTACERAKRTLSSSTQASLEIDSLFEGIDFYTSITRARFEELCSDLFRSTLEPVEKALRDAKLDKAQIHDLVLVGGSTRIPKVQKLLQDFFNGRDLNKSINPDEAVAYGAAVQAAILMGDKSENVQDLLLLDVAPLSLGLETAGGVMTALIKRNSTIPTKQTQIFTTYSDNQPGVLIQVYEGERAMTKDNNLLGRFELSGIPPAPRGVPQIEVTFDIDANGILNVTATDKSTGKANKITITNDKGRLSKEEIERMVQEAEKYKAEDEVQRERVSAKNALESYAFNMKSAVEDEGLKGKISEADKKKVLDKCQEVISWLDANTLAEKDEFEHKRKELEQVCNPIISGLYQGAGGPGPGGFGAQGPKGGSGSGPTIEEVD
Sequence of CIRP (P60824 whole entry): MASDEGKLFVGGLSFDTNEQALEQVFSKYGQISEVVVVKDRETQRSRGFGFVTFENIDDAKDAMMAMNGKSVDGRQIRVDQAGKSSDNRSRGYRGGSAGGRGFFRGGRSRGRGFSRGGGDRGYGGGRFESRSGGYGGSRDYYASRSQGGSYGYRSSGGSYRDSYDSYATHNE
Sequence of eCIRP (P60824 whole entry): as above

Kd (TREM-1 (Mus musculus) [2]): 35400 nM
Substance: HMGB1 (from UniProt P63158)

Kd (TREM-1 (Homo sapiens) [3]): 1.6 nM
Substance: HSP70 N7 peptide (from UniProt P0DMV8)

Kd (TREM-1 (Homo sapiens) [4]): 1.3 nM
Substance: PGLYRP1 peptide 17 (from UniProt O75594)

Kd (TREM-1 (Homo sapiens) [5]): 9.7 nM
Substance: PGLYRP1 peptide N9 (from UniProt O75594)

Further lines, the substance ahead of its results:

Substance: CIRP (from UniProt P60824)
Kd (TREM-1 (Mus musculus) [1]): 120 nM

Substance: PGLYRP1 peptide N15 (from UniProt O75594)
Kd (TREM-1 (Homo sapiens) [6]): 7.4 nM

Substance: eCIRP (from UniProt P60824)
Kd (TREM-1 (Mus musculus) [7]): 117 nM
